Laboratory results published in patent US20020147326A1, “Hexameric fusion proteins and uses therefor” (SmithKline Beecham Corporation, priority 1996, published 2002).

Experiments:
CD28-Ig = target: T1, CD28-Ig (Homo sapiens, UniProt P10747); test: Isothermal titration calorimetry, binding to CD28-Ig in solution
T1 construct: native leader and extracellular domain peptide of CD28 and CD80 were grafted onto a human IgG1 heavy chain Fc region; human IgG1 Fc (hinge/CH2/CH3); made in house; host or cells: CHO cells
Excerpt: The solution binding properties of the hexameric and standard Ig fusion proteins of CD80 and CD86 were compared using isothermal titration calorimetry, essentially as described previously for other proteins [K. Johanson et. al., J. Biol. Chem, 270: 9459-9471 (1995), and references therein].
This lower affinity for CD28 than for CTLA4 is in agreement with other reports [P. S. Linsley et. al., Immunity 1: 793-801 (1994)].

[1] = target: T2, human CD28 on PCD28.1.s2.1 cells (Homo sapiens, UniProt P10747); test: Flow cytometry binding to cells expressing cell-surface CD28; format: cell-based; details: on ice
T2 construct: expressed in transfected cells; host or cells: PCD28.1.s2.1 (PE30.2 murine T-cell hybridoma transfected with pHbactCd28neo)
Procedure: Non-adherent CD28 expressing cells (PCD28.1.s2.1) were used for this assay format. PCD28.1.S2.1 cells were created by transfection of PE30.2 cells [D. Emilie et al., Eur. J. Immunol., 19:1619-1624 (1989)] with a vector for expression of human CD28 [D. Couez et al., Molecular Immunology, 31:47-57 (1994)]. All incubations were carried out on ice. Unlabelled CD80- and CD86-Igαtp or CD80 and CD86-Ig were incubated with the cells in binding buffer consisting of PBS w/o Ca+2/Mg+2, 0.2% bovine serum albumin and 0.1 % sodium azide. After washing twice in binding buffer, bound fusion proteins were detected with a 1:2000 dilution of a goat anti-human polyclonal antibody labeled with FITC (Flourescein isothiocyanate, Southern Biotech). Following two additional washes in binding buffer, the cells were resuspended in binding buffer and analyzed on a FACSort analyzer (Becton-Dickinson) using a 488 nm laser.

[2] = system: murine T-cell hybridoma cell lines expressing human CD28 (PCD28.1.s2.1, DCL27CD28wt.s2); test: IL-2 production by CD28 T-cell hybridomas (CTLL-2 bioassay); format: cell-based
Excerpt: The CD80- and CD86-Igαtp proteins were compared to the corresponding CD80 and CD86-Ig proteins to determine their ability to stimulate cells expressing human CD28 using two murine T-cell hybridoma cell lines expressing human CD28, PCD28.1.s2.1 and DCL27CD28wt.s2. The PCD28.1.s2.1 cell line was described in Example 1, part 3. The DCL27CD28wt.s2 cell line was created by transfection of the DC27 cell line [F. Pages et al., Nature, 369:327-329 (1994); F. Pages et al., J. Biol. Chem., 271(16):9403-9409 (1996)] with the same CD28 expression vector used for the PCD28.1.s2.1 cells [D. Couez et al., Molecular Immunology, 31:47-57 (1994)]. These cell lines were examined for their ability to produce IL-2 in response to activation with CD80- and CD86-Ig in comparison with the corresponding Igαtp fusion proteins. 96-well plates were coated with or without a CD3 antibody together with the CD80 and CD86 fusion proteins. This was accomplished by first incubating the plates with a previously determined suboptimal concentration of hamster […] CD3 antibody (MAb 145-2C11, Boerhinger-Mannheim Biochemicals) for two hours at room temperature (RT) or with just buffer alone, washing the plates with PBS, adding goat anti-human Ig heavy chain (GAH-IgHc, Sigma Chemical Co.) for an additional two hours at RT, washing again and coating with different concentrations of the CD80 or CD86 fusion protein for 16-18 hours at 4° C., washing again, and finally blocking for 30 min. with 0.2% BSA-PBS. […] T cells were incubated in the wells for 24 hours at 37° C., and supernatants were collected and evaluated for IL-2 levels in a standard CTLL-2 bioassay [S. M. Gillis et al., J. Immunol., 120:2027 (1978)]. […] OD570 readings were converted into ng/ml of IL-2 based on a standard curve generated by treating cells with known concentrations of IL-2.
(§1) IL-2 promoter activity and IL-2 levels were measured similarly to that described in parts A and B above, except that proliferation of the reader CTLL-2 cells was measured by ^3H-thymidine incorporation.

[3] = system: PCD28.1.S2.1 cells (human CD28, lacZ fused to the IL-2 promoter); test: FDG assay for IL-2 promoter activity (lacZ reporter); format: cell-based, murine; details: added directly to PC28.1.s2.1 cells in solution (FIG. 20A)
Procedure: A second assay for agonist activity measured induction of IL-2 promoter activity, rather than production of IL-2 protein. The PCD28.1.S2.1 cells described above also contain lacZ fused to the IL-2 promoter. Thus, the PCD28.1.S2.1 cell line provides a convenient system for measuring IL-2 promoter activity upon CD28-mediated T cell simulation. T cells were activated as described above for the CTLL-2 assay, spun down, resuspended in 50 μl of media+50 μl of PBS, lysed with 10 μl of 20% Triton X-100, and supplemented with 25 μl of 10 mM FDG (Molecular Probes), a fluorogenic substrate for b-galactosidase. Hydrolysis of FDG first yields fluorescein monogalactoside (FMG) and then the highly fluorescent product fluorescein. Cell lysates were incubated with FDG for 60 min., and the levels of fluorescence were measured by Fluoroscan (MTX Lab Systems, Inc).
as §1

B1: CD86-Ig: binding protein/Fc construct for CD86 with human IgG1 Fc (protein)
chain: APLKIQAYFNETADLPCQFANSQNQSLSELVVFWQDQENLVLNEVYLGKEKFDSVHSKYMGRTSFDSDSWTLRLHNLQIKDKGLYQCIIHHKKPTGMIRIHQMNSELSVLANFSQPEIVPISNITENVYINLTCSSIHGYPEPKKMSVLLRTKNSTIEYDGIMQKSQDNVTELYDVSISLSVSFPDVTSNMTIFCILETDKTRLLSSPFSIELEDPQPPPDHEPKSADKTHTCPPCP
modifications: left off: a dimerising Fc or GST
interaction with CD28-Ig in solution by calorimetry (CD28-Ig): not detected
binding to CD28 positive cells [1]: no binding
IL-2 production ([2]; added directly to PC28.1.s2.1 cells in solution, CTLL-2 3H-thymidine incorporation (FIG. 20B)): no stimulation
IL-2 response ([2]; cross-linked with GAH antibody, no CD3 antibody): did not give a response
IL-2 production ([2]; soluble protein, absence of CD3 crosslinking): no activity
IL-2 promoter activity [3]: no stimulation
